Laboratory results published in patent US7030231 (University of California, dated 2006).

T1: His-tagged MT-SP1 protease domain (refolded, autoactivated, purified on p-aminobenzamidine resin) (human, UniProt Q9Y5Y6 615-855)
T1 construct: The split 596-614 / 615-855 follows from the stated construct limits and the stated cleavage site; also called His-MT-SP1 protease domain; MT-SP1 His-tagged protease domain
T1 sequence 1: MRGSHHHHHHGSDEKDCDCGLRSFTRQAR
T1 sequence 2: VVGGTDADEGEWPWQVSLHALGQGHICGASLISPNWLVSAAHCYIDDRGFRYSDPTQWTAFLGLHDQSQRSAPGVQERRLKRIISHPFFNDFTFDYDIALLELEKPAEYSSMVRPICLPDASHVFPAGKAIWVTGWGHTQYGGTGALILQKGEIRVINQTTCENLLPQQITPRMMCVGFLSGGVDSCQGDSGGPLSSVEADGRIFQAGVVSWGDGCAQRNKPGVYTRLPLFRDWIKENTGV

T2: inactive Ser805Ala His-tagged MT-SP1 protease domain
T2 chain: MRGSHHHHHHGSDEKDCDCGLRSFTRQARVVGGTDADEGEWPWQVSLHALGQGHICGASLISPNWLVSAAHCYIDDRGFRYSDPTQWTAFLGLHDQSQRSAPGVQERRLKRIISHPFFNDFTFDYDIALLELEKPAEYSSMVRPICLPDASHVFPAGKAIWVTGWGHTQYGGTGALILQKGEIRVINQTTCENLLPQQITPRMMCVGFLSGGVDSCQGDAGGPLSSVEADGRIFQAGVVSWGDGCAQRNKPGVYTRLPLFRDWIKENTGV


What was measured:
[1] = target: T1, His-tagged MT-SP1 protease domain …; test: apparent Ki; inhibition of Spectrozyme tPA hydrolysis by 63 pM enzyme, fit to the tight-binding reversible inhibitor equation
Protocol: Ecotin and ecotin M84R/M85R were purified from *E. coli* as described in copending application Ser. Nos. 09/290,513 and 09/289,830, both filed on Apr. 12, 1999. Various concentrations of ecotin or ecotin M84R/M85R were incubated with the His-tagged serine protease domain in a total volume of 990 μL of buffer containing 50 mM NaCl, 50 mM Tris-HCl (pH 8.8), 0.01% Tween 20. 10 μL of Spectrozyme tPA was added, yielding a solution containing 100 μM substrate. The final enzyme concentration was 63 pM, and the ecotin and ecotin M84R/M85R concentration ranged from 0.1 nM to 50 nM. The data were fit to the equation derived for kinetics of reversible tight-binding inhibitors (Morrison (1969) *Biochim. Biophys. Acta* 185: 269–286, Williams and Morrison (1979) *Methods. Enzymol.* 63: 437–467), and the values for apparent K_i were determined.
The enzyme concentration was determined using an active site titration with MUGB. The catalytic activity of the protease domain was monitored using pNA substrates. Purified protease domain was tested for hydrolytic activity against tetrapeptide substrates of the form Suc-AAPX-pNA, which contained various amino acids at the P1 position (P1-Ala, Asp, Glu, Phe, Leu, Met, Lys, or Arg). The only substrates with detectable activity were those with P1-Lys or P1-Arg. The serine protease domain with the Ser^805Ala mutation had no detectable activity. […]

[2] = target: T2, inactive Ser805Ala His-tagged MT-SP1 …

Ki [1]	Binder	cleavage monitored by SDS-PAGE [2]
9.8 pM	ecotin M84R/M85R (other, E. coli (purified from E. coli), UniProt P23827 21-162, looked up, They probably count on mature ecotin, not on the precursor with its signal peptide) AESVQPLEKIAPYPQAEKGMKRQVIQLTPQEDESTLKVELLIGQTLEVDCNLHRLGGKLENKTLEGWGYDYYVFDKVSSPVSTRRACPDGKKEKKFVTAYLGDAGMLRYNSKLPIVVYTPDNVDVKYRVWKAEEKIDNAVVR	
	His-tagged MT-SP1 protease domain (refolded, autoactivated, purified on p-aminobenzamidine resin) (protein) chain 1: MRGSHHHHHHGSDEKDCDCGLRSFTRQAR chain 2: VVGGTDADEGEWPWQVSLHALGQGHICGASLISPNWLVSAAHCYIDDRGFRYSDPTQWTAFLGLHDQSQRSAPGVQERRLKRIISHPFFNDFTFDYDIALLELEKPAEYSSMVRPICLPDASHVFPAGKAIWVTGWGHTQYGGTGALILQKGEIRVINQTTCENLLPQQITPRMMCVGFLSGGVDSCQGDSGGPLSSVEADGRIFQAGVVSWGDGCAQRNKPGVYTRLPLFRDWIKENTGV	This treatment results in the formation of a cleavage product that corresponds to the size of the active protease
